This assay deals with T1, Npl4 (untagged, of the Ufd1/Npl4 cofactor complex) (S. cerevisiae, UniProt P33755 1-580).
T1 sequence: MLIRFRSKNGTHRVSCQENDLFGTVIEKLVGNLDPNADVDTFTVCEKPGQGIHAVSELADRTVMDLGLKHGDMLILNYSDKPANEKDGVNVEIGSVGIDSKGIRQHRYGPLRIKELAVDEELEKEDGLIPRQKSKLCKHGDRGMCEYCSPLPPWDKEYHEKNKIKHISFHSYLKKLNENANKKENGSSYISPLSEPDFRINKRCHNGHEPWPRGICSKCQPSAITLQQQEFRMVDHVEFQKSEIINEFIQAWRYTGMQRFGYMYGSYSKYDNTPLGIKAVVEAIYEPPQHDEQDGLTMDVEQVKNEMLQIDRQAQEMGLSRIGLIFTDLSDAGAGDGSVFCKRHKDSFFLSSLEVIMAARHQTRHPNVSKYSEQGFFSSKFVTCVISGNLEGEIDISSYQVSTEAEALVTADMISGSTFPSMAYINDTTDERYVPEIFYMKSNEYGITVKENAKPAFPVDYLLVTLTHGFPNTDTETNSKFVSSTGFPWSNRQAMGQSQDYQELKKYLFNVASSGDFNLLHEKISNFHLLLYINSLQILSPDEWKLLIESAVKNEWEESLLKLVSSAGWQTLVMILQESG
Nature of the assay: cryo-EM structure.

B1: Ufd1 (untagged, of the Ufd1/Npl4 cofactor complex) (natural protein, S. cerevisiae, UniProt P53044 1-361, looked up)
chain: MFSGFSSFGGGNGFVNMPQTFEEFFRCYPIAMMNDRIRKDDANFGGKIFLPPSALSKLSMLNIRYPMLFKLTANETGRVTHGGVLEFIAEEGRVYLPQWMMETLGIQPGSLLQISSTDVPLGQFVKLEPQSVDFLDISDPKAVLENVLRNFSTLTVDDVIEISYNGKTFKIKILEVKPESSSKSICVIETDLVTDFAPPVGYVEPDYKALKAQQDKEKKNSFGKGQVLDPSVLGQGSMSTRIDYAGIANSSRNKLSKFVGQGQNISGKAPKAEPKQDIKDMKITFDGEPAKLDLPEGQLFFGFPMVLPKEDEESAAGSKSSEQNFQGQGISLRKSNKRKTKSDHDSSKSKAPKSPEVIEID
In the case of B1, the binding result is reported as “binds”.

(Values after article PMC6980381 (Science (New York, N.Y.), 2019).)
